Reference: patent US20120121596A1 (published 2012)

Tests used:
[1] = target: T1, monomeric human HER3-ecd (Example 9) (human, UniProt P21860 20-643); assay: SPR BIAcore 2000, DL11f human IgG1 immobilized on CM5, monomeric ecd analyte 0.244-250 nM, 25 C
T1 construct: extracellular domain

[2] = target: T2, monomeric human EGFR-ecd (Example 9) (human, UniProt P00533 25-637); assay: as above
T2 construct: range 1-637

[3] = target: T1, monomeric human HER3-ecd (Example 9); assay: SPR, both experiments; reference: affinity for EGFR
[4] = target: HER3 on cells (MCF7 cells; MDA-175 cells) (UniProt P21860 20-1342, limits assumed); assay: cell-based or functional assay
mEGFR-ECD-Fc = target: T3, mEGFR-ECD-Fc (murine, UniProt Q01279 25-647); assay: competitive ELISA: serial dilutions of mEGFR-ECD-Fc with fixed D1.5 on hEGFR-ECD-Fc coated plate
T3 construct: extracellular domain; also called murine EGFR; not shown: Fc

hEGFR-ECD [5] = target: T4, hEGFR-ECD (human, UniProt P00533 25-645); assay: SPR, BIAcore-2000, mIgG D1.5 immobilized on CM5 (~150 RU), EGFR-ECD 12.5-200 nM as analyte, 25 C, 1:1 Langmuir model
T4 construct: extracellular domain

Xolair [6] = target: T5, Xolair; assay: direct phage ELISA on coated proteins as in Example 5, OD450
T5 construct: not shown: the constant regions

HER2-ECD [7] = target: T6, HER2-ECD (human, UniProt P04626 23-652); assay: as above
T6 construct: extracellular domain

BSA [8] = target: T7, BSA (bovine, UniProt P02769); assay: as above
T7 construct: also called bovine serum albumin
T7 sequence (P02769 25-607 limits assumed): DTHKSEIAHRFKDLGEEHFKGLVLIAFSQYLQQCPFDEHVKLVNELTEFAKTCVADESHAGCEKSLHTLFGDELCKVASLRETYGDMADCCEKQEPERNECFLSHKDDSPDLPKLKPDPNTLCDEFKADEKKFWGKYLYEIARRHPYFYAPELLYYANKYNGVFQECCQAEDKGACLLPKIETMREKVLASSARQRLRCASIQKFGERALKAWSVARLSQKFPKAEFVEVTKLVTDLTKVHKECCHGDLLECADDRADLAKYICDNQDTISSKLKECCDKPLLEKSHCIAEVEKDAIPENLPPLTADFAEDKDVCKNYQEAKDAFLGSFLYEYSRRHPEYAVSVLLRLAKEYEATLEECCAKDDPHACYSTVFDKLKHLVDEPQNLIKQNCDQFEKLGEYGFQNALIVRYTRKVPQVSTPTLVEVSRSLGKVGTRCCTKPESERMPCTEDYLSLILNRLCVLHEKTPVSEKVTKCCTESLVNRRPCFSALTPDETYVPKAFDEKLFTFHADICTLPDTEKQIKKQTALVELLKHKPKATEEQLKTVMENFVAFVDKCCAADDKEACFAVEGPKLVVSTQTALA

mHER3-Fc = target: T8, mHER3-Fc; assay: as above
T8 chain: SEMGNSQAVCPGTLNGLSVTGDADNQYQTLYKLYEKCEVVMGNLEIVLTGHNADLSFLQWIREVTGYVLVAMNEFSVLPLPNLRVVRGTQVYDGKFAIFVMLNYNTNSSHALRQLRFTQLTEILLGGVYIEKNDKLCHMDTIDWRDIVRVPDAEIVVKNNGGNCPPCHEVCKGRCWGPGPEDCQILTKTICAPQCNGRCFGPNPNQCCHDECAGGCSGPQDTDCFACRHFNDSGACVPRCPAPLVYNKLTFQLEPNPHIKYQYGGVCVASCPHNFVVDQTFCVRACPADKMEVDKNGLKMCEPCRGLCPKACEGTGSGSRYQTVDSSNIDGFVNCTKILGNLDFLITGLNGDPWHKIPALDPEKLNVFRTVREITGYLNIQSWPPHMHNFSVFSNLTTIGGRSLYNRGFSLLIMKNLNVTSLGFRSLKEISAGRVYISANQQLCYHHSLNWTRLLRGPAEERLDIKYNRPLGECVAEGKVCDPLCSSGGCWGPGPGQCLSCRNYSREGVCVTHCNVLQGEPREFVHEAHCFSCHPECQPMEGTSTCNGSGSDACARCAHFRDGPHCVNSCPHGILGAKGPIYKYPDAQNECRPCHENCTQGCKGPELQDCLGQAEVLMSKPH

TGF-α = target: T9, TGF-α; assay: as above
T9 construct: also called transforming growth factor alpha

HER4-ECD-Fc [9] = target: T10, HER4-ECD-Fc (human, UniProt Q15303 26-651, limits assumed); assay: as above
T10 construct: extracellular domain
T10 sequence (looked up): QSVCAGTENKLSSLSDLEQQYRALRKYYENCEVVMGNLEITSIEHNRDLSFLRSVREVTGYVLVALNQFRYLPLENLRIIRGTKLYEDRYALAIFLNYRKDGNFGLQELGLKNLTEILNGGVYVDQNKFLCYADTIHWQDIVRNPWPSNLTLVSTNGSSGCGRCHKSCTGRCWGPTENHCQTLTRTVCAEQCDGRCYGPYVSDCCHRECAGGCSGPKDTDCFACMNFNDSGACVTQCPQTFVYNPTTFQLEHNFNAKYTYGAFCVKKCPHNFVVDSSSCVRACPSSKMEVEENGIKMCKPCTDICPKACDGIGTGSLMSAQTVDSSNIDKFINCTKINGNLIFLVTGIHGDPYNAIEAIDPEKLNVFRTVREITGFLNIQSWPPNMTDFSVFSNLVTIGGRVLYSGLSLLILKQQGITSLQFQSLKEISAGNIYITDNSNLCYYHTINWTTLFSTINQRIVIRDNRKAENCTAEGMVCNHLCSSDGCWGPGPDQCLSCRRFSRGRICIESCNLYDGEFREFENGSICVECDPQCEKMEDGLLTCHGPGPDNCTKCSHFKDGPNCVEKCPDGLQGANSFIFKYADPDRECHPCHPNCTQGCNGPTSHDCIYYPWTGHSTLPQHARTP

HER3-ECD-Fc [10] = target: T11, HER3-ECD-Fc (human, UniProt P21860 20-643, limits assumed); assay: phage solution binding competition ELISA as in Example 1, antigen in solution varied
T11 construct: extracellular domain; also called HER3-FC; HER3-IgG

hEGFR-ECD [11] = target: T4, hEGFR-ECD; assay: as above
HER2-ECD [12] = target: T6, HER2-ECD; assay: direct phage ELISA, proteins coated at 2 µg/ml, phage-Fab supernatant, OD450;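 note: specificity test of dual-activity clones, with binding assessed across an antigen panel to check whether each recognises only its cognate target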
Erbitux = target: T12, Erbitux; assay: as above
T12 construct: also called cetuximab; C225; not shown: the constant regions

HER3-ECD-Fc [13] = target: T11, HER3-ECD-Fc; assay: as above
BSA [14] = target: T7, BSA; assay: as above
hEGFR-ECD [15] = target: T4, hEGFR-ECD; assay: as above
HER4-ECD-Fc [16] = target: T10, HER4-ECD-Fc; assay: as above
[17] = target: T13, hEGFR-ECD-Fc (human EGFR extracellular domain fused to an Fc region of human IgG1) (human, UniProt P00533 25-645); assay: phage ELISA of clones from plate selection
T13 construct: extracellular domain; not shown: Fc region of human IgG1

Xolair [18] = target: T5, Xolair; assay: direct phage ELISA, proteins coated at 2 µg/ml, phage-Fab supernatant, OD450;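 note: specificity test of dual-activity clones, with binding assessed across an antigen panel to check whether each recognises only its cognate target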
[19] = target: T13, hEGFR-ECD-Fc (human EGFR extracellular …); assay: as above
[20] = target: T14, human HER3-Fc (Example 9) (human, UniProt P21860 20-640); assay: SPR BIAcore 2000, Fc fusion captured on CM5 with human Antibody Capture Kit, Fab analyte 0.244-250 nM, 25 C, 1:1 Langmuir
T14 construct: range 1-640; Produced in CHO cells, protein A purified; also called human HER3-IgG1; not shown: Fc region of human IgG1

[21] = target: T15, human EGFR-Fc (Example 9) (human, UniProt P00533 25-637); assay: as above
T15 construct: range 1-637; Produced in CHO cells, protein A purified; also called Recombinant human EGFR-IgG1; not shown: Fc region of human IgG1

[22] = target: T14, human HER3-Fc (Example 9); assay: SPR, both experiments; reference: affinity for EGFR

B1: DL11f (human IgG1) (bispecific antibody, V domains shown)
VH: EVQLVESGGGLVQPGGSLRLSCAASGFTLSGDWIHWVRQAPGKGLEWVGEISAAGGYTDYADSVKGRFTISADTSKNTAYLQMNSLRAEDTAVYYCARESRVSFEAAMDYWGQGTLVTVSS
VL: DIQMTQSPSSLSASVGDRVTITCRASQNIATDVAWYQQKPGKAPKLLIYSASFLYSGVPSRFSGSGSGTDFTLTISSLQPEDFATYYCQQSEPEPYTFGQGTKVEIKR
Kd [1]: 2.63 nM | Kd [2]: 19.9 nM | fold higher affinity for HER3 than for EGFR [3]: 5 to 8 fold | IC50 of inhibition of MDA-175 cell proliferation [4]: 0.8 to 1 µg/mL

B2: D1.5 (mIgG2A) (antibody, V domains shown)
VH: EVQLVESGGGLVQPGGSLRLSCAASGFTFTGNWIHWVRQAPGKGLEWVGEISPSGGYTDYADSVKGRFTISADTSKNTAYLQMNSLRAEDTAVYYCARESRVSYEAAMDYWGQGTLVTVSS
VL: DIQMTQSPSSLSASVGDRVTITCRASQDVSTAVAWYQQKPGKAPKLLIYSASFLYSGVPSRFSGSGSGTDFTLTISSLQPEDFATYYCQQSYPTPYTFGQGTKVEIKR
notes: also called mIgG D1.5; anti-EGFR mIgG2A
binding result (mEGFR-ECD-Fc): binds | Kd (hEGFR-ECD [5]): 1.2 nM

B3: DL7 (phage-displayed Fab clone) (Fab, V domains shown)
VH: EVQLVESGGGLVQPGGSLRLSCAASGFTLSGDWIHWVRQAPGKGLEWVGEISAAGGYTDYADSVKGRFTISADTSKNTAYLQMNSLRAEDTAVYYCAREARVSYEAAMDYWGQGTLVTVSS
VL: DIQMTQSPSSLSASVGDRVTITCRASQDLATDVAWYQQKPGKAPKLLIYSASFLYSGVPSRFSGSGSGTDFTLTISSLQPEDFATYYCQQSEPEPYTFGQGTKVEIKR
binding result (Xolair [6]): no binding | binding result (HER2-ECD [7]): no binding | binding result (BSA [8]): no binding | binding result (mHER3-Fc): no binding | binding result (TGF-α): no binding | binding result (HER4-ECD-Fc [9]): no binding | IC50 (HER3-ECD-Fc [10]): 0.25 nM | IC50 (hEGFR-ECD [11]): 6.1 nM

B4: DL11 (phage-displayed Fab clone) (Fab, V domains shown)
VH: EVQLVESGGGLVQPGGSLRLSCAASGFTLSGDWIHWVRQAPGKGLEWLGEISAAGGYTDYADSVKGRFTISADTSKNTAYLQMNSLRAEDTAVYYCARESRVSFEAAMDYWGQGTLVTVSS
VL: DIQMTQSPSSLSASVGDRVTITCRASQDLATDVAWYQQKPGKAPKLLIYSASFLYSGVPSRFSGSGSGTDFTLTISSLQPEDFATYYCQQSEPEPYTFGQGTKVEIKR
notes: single Fab on phage
binding result (Xolair [6]): no binding | binding result (BSA [8]): no binding | binding result (mHER3-Fc): no binding | binding result (TGF-α): no binding | binding result (HER4-ECD-Fc [9]): no binding | IC50 (HER3-ECD-Fc [10]): 0.43 nM | IC50 (hEGFR-ECD [11]): 5.7 nM

B5: D1.5-201 (phage-displayed Fab clone) (Fab, V domains shown)
VH: EVQLVESGGGLVQPGGSLRLSCAASGFTFTGNWIHWVRQAPGKGLEWVGEISPSGGYTDYADSVKGRFTISADTSKNTAYLQMNSLRAEDTAVYYCARESRVSYEAAMDYWGQGTLVTVSS
VL: DIQMTQSPSSLSASVGDRVTITCRASQAVWGGYIAPVAWYQQKPGKAPKLLIYDGSYLYSGVPSRFSGSGSGTDFTLTISSLQPEDFATYYCQQRLPTPYTFGQGTKVEIKR
notes: EGFR/HER2 dual-specific clone from the D1.5 light chain library
binding result (HER2-ECD [12]): binds | binding result (Erbitux): no binding | binding result (HER3-ECD-Fc [13]): no binding | binding result (BSA [14]): no binding | binding result (hEGFR-ECD [15]): binds | binding result (HER4-ECD-Fc [16]): no binding | binding result [17]: binds

B6: D1.5-400 (phage-displayed Fab clone) (Fab, V domains shown)
VH: EVQLVESGGGLVQPGGSLRLSCAASGFTFTGNWIHWVRQAPGKGLEWVGEISPSGGYTDYADSVKGRFTISADTSKNTAYLQMNSLRAEDTAVYYCARESRVSYEAAMDYWGQGTLVTVSS
VL: DIQMTQSPSSLSASVGDRVTITCRASQDVLFYGNVAWYQQKPGKAPKLLIYDGSYLYSGVPSRFSGSGSGTDFTLTISSLQPEDFATYYCQQSYPAPYTFGQGTKVEIKR
notes: EGFR/HER4 clone
binding result (Xolair [18]): no binding | binding result (HER2-ECD [12]): no binding | binding result (HER3-ECD-Fc [13]): no binding | binding result (BSA [14]): no binding | binding result [19]: binds | binding result (HER4-ECD-Fc [16]): binds

B7: DL11f Fab (Fab, V domains shown)
VH: EVQLVESGGGLVQPGGSLRLSCAASGFTLSGDWIHWVRQAPGKGLEWVGEISAAGGYTDYADSVKGRFTISADTSKNTAYLQMNSLRAEDTAVYYCARESRVSFEAAMDYWGQGTLVTVSS
VL: DIQMTQSPSSLSASVGDRVTITCRASQNIATDVAWYQQKPGKAPKLLIYSASFLYSGVPSRFSGSGSGTDFTLTISSLQPEDFATYYCQQSEPEPYTFGQGTKVEIKR
Kd [20]: 0.39 nM | Kd [21]: 1.92 nM | fold higher affinity for HER3 than for EGFR [22]: 5 to 8 fold
